IC50 data for eight molecules are collected here from patent publication US20140087995A1 (published 2014).

T1: human amylin receptor (amylin 3(a) receptor: human calcitonin receptor with RAMP-3) (human, UniProt P30988 25-474; O60896 24-148)
T1 construct: whole, on cells; also called hAmylin-R; hAmylinR
T1 sequence (looked up) 1: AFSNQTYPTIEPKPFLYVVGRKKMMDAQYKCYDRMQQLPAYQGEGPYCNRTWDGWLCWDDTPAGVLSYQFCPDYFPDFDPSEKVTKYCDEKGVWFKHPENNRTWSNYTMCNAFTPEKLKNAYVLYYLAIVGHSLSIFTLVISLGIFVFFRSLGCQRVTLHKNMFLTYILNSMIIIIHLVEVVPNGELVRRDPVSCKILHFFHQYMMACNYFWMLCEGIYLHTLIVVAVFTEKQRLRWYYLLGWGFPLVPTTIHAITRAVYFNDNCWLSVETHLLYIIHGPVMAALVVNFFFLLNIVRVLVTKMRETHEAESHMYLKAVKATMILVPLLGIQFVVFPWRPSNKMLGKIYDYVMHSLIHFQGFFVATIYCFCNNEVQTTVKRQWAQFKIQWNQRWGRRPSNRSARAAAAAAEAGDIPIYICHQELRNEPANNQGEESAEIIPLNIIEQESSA
T1 sequence (looked up) 2: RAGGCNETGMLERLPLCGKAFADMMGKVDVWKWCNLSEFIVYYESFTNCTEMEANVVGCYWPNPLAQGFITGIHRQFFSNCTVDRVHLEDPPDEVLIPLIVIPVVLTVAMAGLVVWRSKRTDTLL

B1: N^α1-[(4S)-4-carboxy-4-(19-carboxynonadecanoylamino)butanoyl]-[Glu14,Arg17,Pro21,Pro27,Arg35]-h-amylin (peptide)
peptide: {C20 diacid-γGlu}-KCNTATCATQRLAEFLRHSSPNFGAIPSSTNVGSRTY-NH2
modifications: disulfide 2-7
SMILES: CC[C@H](C)[C@H](NC(=O)[C@H](C)NC(=O)CNC(=O)[C@H](Cc1ccccc1)NC(=O)[C@H](CC(N)=O)NC(=O)[C@@H]1CCCN1C(=O)[C@H](CO)NC(=O)[C@H](CO)NC(=O)[C@H](Cc1c[nH]cn1)NC(=O)[C@H](CCCNC(=N)N)NC(=O)[C@H](CC(C)C)NC(=O)[C@H](Cc1ccccc1)NC(=O)[C@H](CCC(=O)O)NC(=O)[C@H](C)NC(=O)[C@H](CC(C)C)NC(=O)[C@H](CCCNC(=N)N)NC(=O)[C@H](CCC(N)=O)NC(=O)[C@@H](NC(=O)[C@H](C)NC(=O)[C@@H]1CSSC[C@H](NC(=O)[C@H](CCCCN)NC(=O)CC[C@H](NC(=O)CCCCCCCCCCCCCCCCCCC(=O)O)C(=O)O)C(=O)N[C@@H](CC(N)=O)C(=O)N[C@@H]([C@@H](C)O)C(=O)N[C@@H](C)C(=O)N[C@@H]([C@@H](C)O)C(=O)N1)[C@@H](C)O)C(=O)N1CCC[C@H]1C(=O)N[C@@H](CO)C(=O)N[C@@H](CO)C(=O)N[C@H](C(=O)N[C@@H](CC(N)=O)C(=O)N[C@H](C(=O)NCC(=O)N[C@@H](CO)C(=O)N[C@@H](CCCNC(=N)N)C(=O)N[C@H](C(=O)N[C@@H](Cc1ccc(O)cc1)C(N)=O)[C@@H](C)O)C(C)C)[C@@H](C)O
notes: also called 16; compound 16
B2: N^α1-[(4S)-4-carboxy-4-(19-carboxynonadecanoylamino)butanoyl]-[Glu14,Arg17,Pro21,Pro27,Pro31]-h-amylin (peptide)
peptide: {C20 diacid-γGlu}-KCNTATCATQRLAEFLRHSSPNFGAIPSSTPVGSNTY-NH2
modifications: disulfide 2-7
SMILES: CC[C@H](C)[C@H](NC(=O)[C@H](C)NC(=O)CNC(=O)[C@H](Cc1ccccc1)NC(=O)[C@H](CC(N)=O)NC(=O)[C@@H]1CCCN1C(=O)[C@H](CO)NC(=O)[C@H](CO)NC(=O)[C@H](Cc1c[nH]cn1)NC(=O)[C@H](CCCNC(=N)N)NC(=O)[C@H](CC(C)C)NC(=O)[C@H](Cc1ccccc1)NC(=O)[C@H](CCC(=O)O)NC(=O)[C@H](C)NC(=O)[C@H](CC(C)C)NC(=O)[C@H](CCCNC(=N)N)NC(=O)[C@H](CCC(N)=O)NC(=O)[C@@H](NC(=O)[C@H](C)NC(=O)[C@@H]1CSSC[C@H](NC(=O)[C@H](CCCCN)NC(=O)CC[C@H](NC(=O)CCCCCCCCCCCCCCCCCCC(=O)O)C(=O)O)C(=O)N[C@@H](CC(N)=O)C(=O)N[C@@H]([C@@H](C)O)C(=O)N[C@@H](C)C(=O)N[C@@H]([C@@H](C)O)C(=O)N1)[C@@H](C)O)C(=O)N1CCC[C@H]1C(=O)N[C@@H](CO)C(=O)N[C@@H](CO)C(=O)N[C@H](C(=O)N1CCC[C@H]1C(=O)N[C@H](C(=O)NCC(=O)N[C@@H](CO)C(=O)N[C@@H](CC(N)=O)C(=O)N[C@H](C(=O)N[C@@H](Cc1ccc(O)cc1)C(N)=O)[C@@H](C)O)C(C)C)[C@@H](C)O
notes: also called 31; compound 31
B3: N^α1-[(4S)-4-carboxy-4-(19-carboxynonadecanoylamino)butanoyl]-[Glu14,Arg17,Pro21,Pro27]-h-amylin (peptide)
peptide: KCNTATCATQRLAEFLRHSSPNFGAIPSSTNVGSNTY
modifications: C20 diacid-gGlu on alpha amino group of N-terminal Lys 1; Cys2-Cys7 disulfide; C-terminal amide
notes: also called compound 9
B4: N^α1-[(4S)-4-carboxy-4-(19-carboxynonadecanoylamino)butanoyl]-[Glu14,Arg17,Pro21,Pro27,His35]-h-amylin (peptide)
peptide: {C20 diacid-γGlu}-KCNTATCATQRLAEFLRHSSPNFGAIPSSTNVGSHTY-NH2
modifications: disulfide 2-7
SMILES: CC[C@H](C)[C@H](NC(=O)[C@H](C)NC(=O)CNC(=O)[C@H](Cc1ccccc1)NC(=O)[C@H](CC(N)=O)NC(=O)[C@@H]1CCCN1C(=O)[C@H](CO)NC(=O)[C@H](CO)NC(=O)[C@H](Cc1c[nH]cn1)NC(=O)[C@H](CCCNC(=N)N)NC(=O)[C@H](CC(C)C)NC(=O)[C@H](Cc1ccccc1)NC(=O)[C@H](CCC(=O)O)NC(=O)[C@H](C)NC(=O)[C@H](CC(C)C)NC(=O)[C@H](CCCNC(=N)N)NC(=O)[C@H](CCC(N)=O)NC(=O)[C@@H](NC(=O)[C@H](C)NC(=O)[C@@H]1CSSC[C@H](NC(=O)[C@H](CCCCN)NC(=O)CC[C@H](NC(=O)CCCCCCCCCCCCCCCCCCC(=O)O)C(=O)O)C(=O)N[C@@H](CC(N)=O)C(=O)N[C@@H]([C@@H](C)O)C(=O)N[C@@H](C)C(=O)N[C@@H]([C@@H](C)O)C(=O)N1)[C@@H](C)O)C(=O)N1CCC[C@H]1C(=O)N[C@@H](CO)C(=O)N[C@@H](CO)C(=O)N[C@H](C(=O)N[C@@H](CC(N)=O)C(=O)N[C@H](C(=O)NCC(=O)N[C@@H](CO)C(=O)N[C@@H](Cc1c[nH]cn1)C(=O)N[C@H](C(=O)N[C@@H](Cc1ccc(O)cc1)C(N)=O)[C@@H](C)O)C(C)C)[C@@H](C)O
notes: also called 18; compound 18
B5: N^α1-[(4S)-4-carboxy-4-(19-carboxynonadecanoylamino)butanoyl]-[Glu14,Arg17,Pro21,Pro27,Asp35,Pro37]-h-amylin (peptide)
peptide: {C20 diacid-γGlu}-KCNTATCATQRLAEFLRHSSPNFGAIPSSTNVGSDTP-NH2
modifications: disulfide 2-7
SMILES: CC[C@H](C)[C@H](NC(=O)[C@H](C)NC(=O)CNC(=O)[C@H](Cc1ccccc1)NC(=O)[C@H](CC(N)=O)NC(=O)[C@@H]1CCCN1C(=O)[C@H](CO)NC(=O)[C@H](CO)NC(=O)[C@H](Cc1c[nH]cn1)NC(=O)[C@H](CCCNC(=N)N)NC(=O)[C@H](CC(C)C)NC(=O)[C@H](Cc1ccccc1)NC(=O)[C@H](CCC(=O)O)NC(=O)[C@H](C)NC(=O)[C@H](CC(C)C)NC(=O)[C@H](CCCNC(=N)N)NC(=O)[C@H](CCC(N)=O)NC(=O)[C@@H](NC(=O)[C@H](C)NC(=O)[C@@H]1CSSC[C@H](NC(=O)[C@H](CCCCN)NC(=O)CC[C@H](NC(=O)CCCCCCCCCCCCCCCCCCC(=O)O)C(=O)O)C(=O)N[C@@H](CC(N)=O)C(=O)N[C@@H]([C@@H](C)O)C(=O)N[C@@H](C)C(=O)N[C@@H]([C@@H](C)O)C(=O)N1)[C@@H](C)O)C(=O)N1CCC[C@H]1C(=O)N[C@@H](CO)C(=O)N[C@@H](CO)C(=O)N[C@H](C(=O)N[C@@H](CC(N)=O)C(=O)N[C@H](C(=O)NCC(=O)N[C@@H](CO)C(=O)N[C@@H](CC(=O)O)C(=O)N[C@H](C(=O)N1CCC[C@H]1C(N)=O)[C@@H](C)O)C(C)C)[C@@H](C)O
notes: also called 11; compound 11
B6: N^α1-[(4S)-4-carboxy-4-(19-carboxynonadecanoylamino)butanoyl]-[Glu14,Arg17,Pro21,Pro27,Pro29]-h-amylin (peptide)
peptide: {C20 diacid-γGlu}-KCNTATCATQRLAEFLRHSSPNFGAIPSPTNVGSNTY-NH2
modifications: disulfide 2-7
SMILES: CC[C@H](C)[C@H](NC(=O)[C@H](C)NC(=O)CNC(=O)[C@H](Cc1ccccc1)NC(=O)[C@H](CC(N)=O)NC(=O)[C@@H]1CCCN1C(=O)[C@H](CO)NC(=O)[C@H](CO)NC(=O)[C@H](Cc1c[nH]cn1)NC(=O)[C@H](CCCNC(=N)N)NC(=O)[C@H](CC(C)C)NC(=O)[C@H](Cc1ccccc1)NC(=O)[C@H](CCC(=O)O)NC(=O)[C@H](C)NC(=O)[C@H](CC(C)C)NC(=O)[C@H](CCCNC(=N)N)NC(=O)[C@H](CCC(N)=O)NC(=O)[C@@H](NC(=O)[C@H](C)NC(=O)[C@@H]1CSSC[C@H](NC(=O)[C@H](CCCCN)NC(=O)CC[C@H](NC(=O)CCCCCCCCCCCCCCCCCCC(=O)O)C(=O)O)C(=O)N[C@@H](CC(N)=O)C(=O)N[C@@H]([C@@H](C)O)C(=O)N[C@@H](C)C(=O)N[C@@H]([C@@H](C)O)C(=O)N1)[C@@H](C)O)C(=O)N1CCC[C@H]1C(=O)N[C@@H](CO)C(=O)N1CCC[C@H]1C(=O)N[C@H](C(=O)N[C@@H](CC(N)=O)C(=O)N[C@H](C(=O)NCC(=O)N[C@@H](CO)C(=O)N[C@@H](CC(N)=O)C(=O)N[C@H](C(=O)N[C@@H](Cc1ccc(O)cc1)C(N)=O)[C@@H](C)O)C(C)C)[C@@H](C)O
notes: also called 37; compound 37
B7: N^α1-[(4S)-4-carboxy-4-(19-carboxynonadecanoylamino)butanoyl]-[Glu14,Arg17,Pro21,Pro28,Glu35]-h-amylin (peptide)
peptide: {C20 diacid-γGlu}-KCNTATCATQRLAEFLRHSSPNFGAILPSTNVGSETY-NH2
modifications: disulfide 2-7
notes: also called 33; compound 33
B8: N^α1-[(4S)-4-carboxy-4-(19-carboxynonadecanoylamino)butanoyl]-[Glu14,Arg17,Pro21,Pro27,Pro37]-h-amylin (peptide)
peptide: {C20 diacid-γGlu}-KCNTATCATQRLAEFLRHSSPNFGAIPSSTNVGSNTP-NH2
modifications: disulfide 2-7
notes: also called compound 8

Numbered stars: 1 amine (or outer) side, 2 acyl side, 3 side chain; on linkers, the order of the positions; unused ones are H or OH. Bridge positions count the residues as written; N and C are the ends. * marks the point of attachment. C20 diacid = O=C(O)CCCCCCCCCCCCCCCCCCC(=O)*; γGlu = O=C(O)[C@H](CCC(=O)[*:2])N[*:1]

This test addresses T1, human amylin receptor (amylin 3(a) …). Nature of the test: SPA displacement of 125I-rat amylin, hAmylin 3(a) receptor membranes. The procedure: The binding assay was performed using scintillation proximity assay (SPA) beads (RPNQ0001) from PerkinElmer and cell membranes from the Amylin 3(a)/CRE-luc cells (as described in Assay (II)) were used. Membranes were prepared in the following way; the cells were rinsed with PBS and incubated with Versene for approximately 5 min before harvesting. The cells were flushed with PBS and the cell-suspension was centrifuged for 5 min at 1000 rpm. Cells were homogenized (ultrathurrax) in a buffer containing 20 mM Na-HEPES and 10 mM EDTA (pH 7.4) and centrifuged at 20.000 rpm for 15 min. The resulting pellet was resuspended, homogenized and centrifuged (20.000 rpm, 15 min) in a buffer containing 20 mM Na-HEPES and 0.1 mM EDTA (pH 7.4, buffer 2). The resulting pellet was resuspended in buffer 2 and protein concentration was measured (BCA protein Assay, Pierce). The homogenate was kept cold during the whole procedure. The membranes were kept at −80° C. until use. The assay was performed in a 384 well Optiplate (PerkinElmer) in a total volume of 40 ul. Membranes were mixed with SPA beads. Final concentration of membranes 35 ng/μL final and SPA beads was 0.05 mg/well. Test-compounds were dissolved in DMSO and further diluted in assay buffer (50 mM Hepes, pH 7.4, 1 mM CaCl2, 5 mM MgCl₂, 0.1% OA and 0.02% Tween20). […] The final mixture was incubated with shaking at 400 rpm for 120 min at 25° C. prior to centrifugation (1500 rpm, 10 min). Samples were analyzed on TopCounter™ (Packard). The IC₅₀ was calculated using (one site binding competition analysis) GraphPad Prism5 as a measure of receptor affinity.
Turning to B1, the IC50 came to 0.894 nM. The value for B2 was 0.204 nM; that for B3 was 0.143 nM.

For the molecule B4, the IC50 was 0.554 nM. The figure for B5 is 0.105 nM. The value for B6 was 0.97 nM; that for B7 was 0.915 nM; that for B8 was 0.072 nM.

A word on the IC50: it is the midpoint of a concentration-inhibition curve.
